According to patent US20040115195A1:

Molecular target: PTH-1 receptor (human) (UniProt Q03431)
Test: cell-based or functional assay

Chain of UniProt Q03431 (Q03431 27-593): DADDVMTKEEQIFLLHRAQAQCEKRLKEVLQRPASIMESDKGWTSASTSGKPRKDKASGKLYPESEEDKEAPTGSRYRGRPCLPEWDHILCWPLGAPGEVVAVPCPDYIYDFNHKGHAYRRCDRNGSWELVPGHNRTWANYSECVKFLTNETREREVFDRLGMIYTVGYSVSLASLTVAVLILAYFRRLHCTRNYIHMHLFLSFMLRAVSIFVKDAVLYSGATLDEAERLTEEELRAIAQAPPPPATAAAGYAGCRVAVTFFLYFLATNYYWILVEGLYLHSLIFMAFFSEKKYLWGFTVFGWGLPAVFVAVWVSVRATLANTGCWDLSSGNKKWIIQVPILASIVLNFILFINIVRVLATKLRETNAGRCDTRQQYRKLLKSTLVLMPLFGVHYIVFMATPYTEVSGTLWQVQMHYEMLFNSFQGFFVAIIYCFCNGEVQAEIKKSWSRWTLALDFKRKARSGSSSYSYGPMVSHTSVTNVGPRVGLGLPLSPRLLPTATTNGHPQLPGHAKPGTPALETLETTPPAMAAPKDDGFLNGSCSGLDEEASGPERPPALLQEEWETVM

intracellular cAMP levels in hOB-01-C1-PS-09 cells preincubated 48 hr at 39 C, treated 10 min at 37 C: 5 to 6 fold
Substance: human PTH 1-34 (from UniProt P01270 32-65) (peptide)
